Consider 33 sequences from the Immune Epitope Database (IEDB).

Experiment [1] concerns the target HLA-A*02:03. In words: IEDB peptide-MHC binding, purified MHC/direct/fluorescence; filed as Kd, often an IC50 or EC50 that approximates it; ≥ and ≤ were set here for values at or beyond the usual limits of such assays. Particulars: source organism: Orthohantavirus tulaense.
For experiment [2], the target named is HLA-A*02:11. The description is as above. Particulars: source organism: Orthohantavirus tulaense.
The target of experiment [3] is HLA-A*02:12. Described as above. The settings on record: source organism: Orthohantavirus tulaense.
The target of experiment [4] is HLA-A*02:16. The experiment is described as above. The settings on record: source organism: Orthohantavirus tulaense.
Experiment [5] concerns the target HLA-A*02:19. Described as above. The settings on record: source organism: Orthohantavirus tulaense.
The target of experiment [6] is HLA-A*03:01. The experiment is described as above. The settings on record: source organism: Orthohantavirus tulaense.
The target of experiment [7] is HLA-A*24:03. The description is as above. The settings on record: source organism: Orthohantavirus tulaense.
In experiment [8] the target is HLA-A*29:02. The description is as above. Particulars: source organism: Orthohantavirus tulaense.
Experiment [9] concerns the target HLA-B*40:01. The description is as above. Particulars: source organism: Orthohantavirus puumalaense.
The target in experiment [10] is HLA-A*26:01. The experiment can be described thus: IEDB peptide-MHC binding, purified MHC/competitive/fluorescence; filed as Kd, often an IC50 or EC50 that approximates it; ≥ and ≤ were set here for values at or beyond the usual limits of such assays. The settings on record: source organism: Orthohantavirus tulaense.
The target of experiment [11] is HLA-B*15:01. The experiment is described as above. Particulars: source organism: Orthohantavirus tulaense.
Experiment [12] concerns the target HLA-B*18:01. Described as above. Particulars: source organism: Orthohantavirus tulaense.
The target in experiment [13] is HLA-B*27:03. The description is as above. The settings on record: source organism: Orthohantavirus tulaense.
The target in experiment [14] is HLA-B*39:01. The description is as above. The settings on record: source organism: Orthohantavirus tulaense.
Experiment [15] concerns the target HLA-B*46:01. The description is as above. Particulars: source organism: Orthohantavirus tulaense.
For experiment [16], the target named is HLA-B*51:01. Described as above. The settings on record: source organism: Orthohantavirus tulaense.
For experiment [17], the target named is HLA-B*57:01. The description is as above. The settings on record: source organism: Orthohantavirus tulaense.
In experiment [18] the target is HLA-A*29:02. Described as above.
For experiment [19], the target named is HLA-B*57:01. The experiment can be described thus: IEDB peptide-MHC binding, purified MHC/competitive/radioactivity; filed as Kd, often an IC50 or EC50 that approximates it; ≥ and ≤ were set here for values at or beyond the usual limits of such assays.
In experiment [20] the target is HLA-B*53:01. The experiment is described as above. Particulars: source organism: Dengue virus 1 Brazil/97-11/1997.
Experiment [21] deals with HLA-A*68:02. In words: IEDB peptide-MHC binding, purified MHC/competitive/fluorescence; filed as Kd, often an IC50 or EC50 that approximates it; ≥ and ≤ were set here for values at or beyond the usual limits of such assays. The settings on record: source organism: Rickettsia sibirica 246.
Experiment [22] concerns the target HLA-A*02:03. In words: IEDB peptide-MHC binding, purified MHC/competitive/radioactivity; filed as Kd, often an IC50 or EC50 that approximates it; ≥ and ≤ were set here for values at or beyond the usual limits of such assays.
The target of experiment [23] is HLA-A*02:06. The experiment is described as above.
The target of experiment [24] is HLA-A*02:17. Described as above.
Experiment [25] addresses HLA-A*68:02. The description is as above.
Experiment [26] concerns the target HLA-A*02:01. The description is as above.
Experiment [27] has as its target HLA-A*02:01. The experiment can be described thus: IEDB peptide-MHC binding, purified MHC/competitive/fluorescence; ≥ and ≤ were set here for values at or beyond the usual limits of such assays. The settings on record: source organism: Zaire ebolavirus.
For experiment [28], the target named is HLA-A*11:01. Described as above. Particulars: source organism: Zaire ebolavirus.
Experiment [29] concerns the target HLA-A*32:01. The experiment can be described thus: IEDB peptide-MHC binding, purified MHC/competitive/radioactivity; filed as Kd, often an IC50 or EC50 that approximates it; ≥ and ≤ were set here for values at or beyond the usual limits of such assays. The settings on record: source organism: Dengue virus 1 Brazil/97-11/1997.
For experiment [30], the target named is HLA-A*01:01. In words: IEDB peptide-MHC binding, purified MHC/competitive/fluorescence; filed as Kd, often an IC50 or EC50 that approximates it; ≥ and ≤ were set here for values at or beyond the usual limits of such assays.
Experiment [31] concerns the target HLA-A*24:03. The description is as above. Particulars: source organism: Escherichia coli 536.
For experiment [32], the target named is HLA-B*15:17. The experiment can be described thus: IEDB peptide-MHC binding, purified MHC/direct/fluorescence; filed as Kd, often an IC50 or EC50 that approximates it; ≥ and ≤ were set here for values at or beyond the usual limits of such assays. The settings on record: source organism: West Nile virus.
The target of experiment [33] is HLA-A*23:01. In words: IEDB peptide-MHC binding, purified MHC/competitive/radioactivity; filed as Kd, often an IC50 or EC50 that approximates it; ≥ and ≤ were set here for values at or beyond the usual limits of such assays. The settings on record: source organism: Vaccinia virus WR.
The target in experiment [34] is HLA-A*24:02. The description is as above. Particulars: source organism: Vaccinia virus WR.
Where [35] appears, read: source organism: Dengue virus 2 Jamaica/1409/1983.
Setting [36] is: source organism: Dengue virus 1 Brazil/97-11/1997.
[37] abbreviates: source organism: Dengue virus 3 Martinique/1243/1999.
The mark [38] stands for this setting: source organism: Dengue virus 3 China/80-2/1980.
Where [39] appears, read: source organism: Dengue virus 1 Singapore/S275/1990.
Where [40] appears, read: source organism: Dengue virus 2 Thailand/NGS-C/1944.
The mark [41] stands for this setting: source organism: Dengue virus 2 Peru/IQT2913/1996.
Where [42] appears, read: source organism: Dengue virus 4 Philippines/H241/1956.
The mark [43] stands for this setting: source organism: Dengue virus 4 Dominica/814669/1981.

As usually defined, the Kd is the free concentration of one partner at which half of the binding sites on the other are occupied at equilibrium, for simple one-to-one binding. In the case of AESICSYWL, the Kd in [1], in experiment [2], in experiment [3], in [4], in [5] and in experiment [6] was at least 20000 nM each time. Moreover, the Kd in experiment [7] was at least 20000 nM; in experiment [8], at least 20000 nM; in experiment [9] it was 0.3 nM; in experiment [10] it was at least 20000 nM; in experiment [11] it was at least 20000 nM; in [12] it was at least 20000 nM. Also, the Kd in experiment [13], in experiment [14], in experiment [15], in [16] and in experiment [17] was at least 20000 nM in each case.
In [18] (source organism: Bacillus anthracis str. A0488), APKDLLPWY had a Kd of 2540 nM.
With AVSMANIFRG, in experiment [19] (setting [35]), the Kd was found to be 37.2 nM.
Sequence AWISSMLLY gave an equilibrium dissociation constant (Kd) in experiment [18] (source organism: Brucella suis ATCC 23445) of 0.2 nM.
EAVEDERFW: the Kd in experiment [20] was 80.8 nM; in experiment [19] (setting [36]), 84.5 nM.
Regarding FIHFDHVPI, the Kd in experiment [21] stood at 24.7 nM.
Turning to FLAIPPTAGV, the equilibrium dissociation constant (Kd) turned out to be 1.72 nM in experiment [22] (setting [37]), 120 nM in [23] (setting [37]), 11.9 nM in experiment [24] (setting [38]) and 9.73 nM in experiment [25] (setting [37]).
GIMTIDLDPV: the Kd in experiment [26] (setting [38]) was determined as 11.7 nM; in experiment [22] (setting [37]), 25.2 nM; in experiment [23] (setting [37]), 83 nM; in experiment [24] (setting [38]) it was 2080 nM.
With GTSHNILVEV, the Kd in [25] (setting [36]) came to 15 nM; in experiment [19] (setting [36]) it was 758 nM.
Broadly, the IC50 is the concentration needed to halve the response being measured. A low value points to higher potency. In the case of GVNNLEHGL, the IC50 was 6440 nM in experiment [27] and at least 132000 nM in experiment [28].
Turning to KFGPYVSDY, the Kd in experiment [18] (source organism: Yersinia pseudotuberculosis IP 31758) stood at 110 nM.
As for LLATSIFKL, the dissociation constant (Kd) stood at 5 nM in experiment [26] (setting [39]), 14.3 nM in experiment [22] (setting [36]) and 22.7 nM in experiment [24] (setting [39]).
Taken in the same sequence, the figures for LLMLLPTALA were 128 nM, 49.9 nM and 5210 nM.
Take LMLVAHYAI: the values for the Kd in [26] (setting [39]), in [24] (setting [39]) and in experiment [29] were 6.46 nM, 15.8 nM and 5.57 nM, respectively.
For LMSGKDVFYL, the Kd in [26] (setting [38]) turned out to be 4.76 nM; in experiment [24] (setting [38]), 8.67 nM.
Consider LNRPDIGLY, for which the Kd in experiment [18] (source organism: Campylobacter jejuni) stood at 306 nM.
LTMDREMLY yielded a Kd in [30] (source organism: Bacillus cereus G9241) of 5.1 nM.
Consider MIIMLIPTV, for which the Kd amounted to 3.89 nM in experiment [26] (setting [40]), 4.4 nM in experiment [22] (setting [41]), 7.5 nM in experiment [23] (setting [41]) and 0.634 nM in [24] (setting [40]).
As for NTSMAMTCIA, in experiment [19] (setting [42]), the Kd worked out at 11700 nM.
In experiment [31], PYKIPATVI had a Kd of 1060 nM.
In experiment [18] (source organism: Vibrio cholerae 2740-80), QFLAPDDRY came in with a dissociation constant Kd of 3.2 nM.
In experiment [30] (source organism: Influenza A virus (A/X-31(H3N2))), QVSRPMFLY yielded a Kd of at least 20000 nM.
For the sequence RAWNSGYEW, in [32], the Kd was 4.4 nM.
SMGLITIAV: the Kd in experiment [26] (setting [43]) came out at 9.99 nM; in experiment [24] (setting [43]) it was 776 nM.
In the case of SWNNHSYLY, the Kd was 4280 nM in experiment [30] (source organism: Mus musculus) and at most 0.1 nM in [18] (source organism: Mus musculus).
For the sequence VLDHILQKT, the IC50 in [27] was determined as 2620 nM; in [28], 55000 nM.
Take VLNPYMPSV: the dissociation constant (Kd) was found to be 1.38 nM in [26] (setting [35]), 6.6 nM in [22] (setting [35]), 6.19 nM in experiment [23] (setting [35]) and 8.12 nM in experiment [24] (setting [35]).
With VMLLVLCAV, the Kd was 14.7 nM in experiment [26] (setting [38]), 775 nM in experiment [22] (setting [37]), 12.4 nM in [23] (setting [37]) and at least 28700 nM in experiment [24] (setting [38]).
Turning to VTDTNKFDNY, the Kd in experiment [30] (source organism: Vaccinia virus WR) is 4.9 nM; in experiment [33] it was at least 70000 nM; in experiment [34], at least 70300 nM.
As to YLALMATFKM, the dissociation constant (Kd) in experiment [26] (setting [39]) turned out to be 12.8 nM; in experiment [24] (setting [39]) it was 182 nM.
Take YMGEDGCWYG: the values for the equilibrium dissociation constant (Kd) in experiment [26] (setting [38]) and in [24] (setting [38]) were 211 nM and 6040 nM, respectively.
With YQGKTVWFV, the Kd in experiment [26] (setting [42]) stood at 9.87 nM; in [23] (setting [42]), 12.3 nM; in [24] (setting [42]) it was 201 nM.
YQLAVTIMA: the values for the dissociation constant Kd in experiment [26] (setting [35]), in [23] (setting [35]) and in [24] (setting [35]) were 42.3 nM, 19.8 nM and 10800 nM, respectively.
